Usually stoichiometry N stands for a count of units in the complex or per binding partner.

Drawing on paper PMC9927573, this text covers stoichiometry N for 1 substance.

The target of assay [1] is Zika virus envelope glycoprotein E, as displayed on recombinant F2A virus-like particles (Zika virus (strain BeH818995)). Description: non-reducing SDS-PAGE with Western blot; cell culture medium of transfected 293T cells, 72 and 96 h posttransfection at 37°C, 20 μg of total protein per sample; nonreducing conditions; E detected with monoclonal 4G2 antibody. On the technique in general: A western blot detects proteins with antibodies after separation by electrophoresis.

For assay [2] the target is unchanged. Briefly: SDS-PAGE with Western blot; fractions of the two-step chromatographic purification of F2A VLPs (HiTrap Capto Q, then HiScreen Capto Core 700 flow-through); immunoblot of E.

In the case of “Zika virus envelope glycoprotein E, as displayed on recombinant F2A virus-like particles (natural protein)”, the stoichiometry N in assay [1] and in assay [2] was 2 throughout.
